Source: patent US9938503B2, “Differentiation of human iPS cells to human alveolar type II via definitive endoderm” (YALE UNIVERSITY, priority 2012, dated 2018)

Tests used:
[1] = system: iPSC-AETII cells; assay: Differentiation of iPSC-derived AETII cells to AETI cells with IWR-1; assay type: cell-based, human
Experimental: Differentiated cells at day 22 were then maintained in DMEM medium with 10% FBS, 2 mM L-glutamine, 1 mM nonessential amino acids, 1% antibiotic-antimycotic and […] IWR-1 for 7 days.
(§1) For flow cytometry, cells were dissociated into single-cell suspensions by incubation with 0.25% trypsin for 2 min, and fixed (Fixation/Permeabilization kit, BD Biosciences). After blocking for 30 min on ice, the cells were incubated with primary antibody in blocking solution for 30 min on ice. The cells were resuspended in 350 μl of Perm/Wash buffer after incubation with conjugated secondaries for 30 min on ice, washed twice, and analyzed by flow cytometry. See Table 1 for antibody information.
(§2) Total RNA was extracted using the RNeasy Mini Kit from Qiagen, following the manufacturer's instructions. First-strand complementary DNA (cDNA) was synthesized with random hexamers as primers, using SuperScript First-Strand Synthesis System according to manufacturer's protocol (Invitrogen). Each sample was run in triplicate with iQ™ SYBR Green Supermix (Bio-Rad). PCR conditions included an initial denaturation step of 4 min at 95° C., followed by 40 cycles of PCR consisting of 15s at 95° C., 30 s at 60° C., and 30 s at 72° C. Average threshold cycle (Ct) values from the triplicate PCR reactions for a gene of interest (GOI) were normalized against average GAPDH Ct values from the same cDNA sample. Fold change of GOI transcript levels between sample A and sample B equals 2^−ΔΔCt, where ΔCt=Ct(GOI)−Ct(GAPDH), and ΔΔCt=ΔCt(A)−ΔCt(B).

[2] = system: iPSC-derived DE cells; assay: Extracellular matrix protein effects on DE cell adhesion and differentiation; assay type: cell-based, human; settings: ECM-coated plates, media with NOGGIN/SB-431542
Experimental: (§3) DE generated by exposure to activin A were trypsinized, reseeded at a ratio of 1:1-2 on human ECM protein-coated plates and differentiated to anterior foregut endoderm with IMDM+5% FBS, 2 mM L-glutamine, 1 mM nonessential amino acids, 1% antibiotic-antimycotic supplemented with 200 ng/ml NOGGIN and […] SB-431542 for 2 days (Longmire T A, et al. 2012. Cell Stem Cell 10(4):398-411, Green M D, et al. 2011. Nat Biotechnol 29(3):267-272).
as §2, with “ΔΔCt=ΔCt(A)−ΔCt(B). […]” for “ΔΔCt=ΔCt(A)−ΔCt(B).”

[3] = system: human iPS cells (C1 and C2 clones); assay: Differentiation of iPS cells to definitive endoderm with activin A, flow cytometry; assay type: cell-based; settings: for endodermal cells based on dual expression of SOX17 and FOXA2: day 6
Experimental: Human iPSCs were differentiated to alveolar epithelium in a directed differentiation protocol via definitive endoderm (DE) and anterior foregut endoderm (AFE). iPS cells were differentiated towards definitive endoderm under conditions described previously (Duan Y, et al. 2010. Stem Cells 28(4):674-686, Kubo A, et al. 2004. Development. 131(7):1651-1662). Briefly, h-iPSC were cultured in RPMI 1640 medium supplemented with 100 ng/ml activin A, 2 mM L-glutamine and 1% antibiotic-antimycotic for 48 hours; 1xB27 supplement, 0.5 mM sodium butyrate and 0.1% FBS were added into the same medium and the cells were cultured for another 4 days, with daily medium changes (D'Amour K A, et al. 2005. Nat Biotechnol 23(12):1534-1541).
as §1

[4] = system: iPSC-derived definitive endoderm cells; assay: Differentiation of definitive endoderm to anterior foregut endoderm with NOGGIN/SB-431542, flow cytometry; assay type: cell-based, human
Experimental: as §3, §1

[5] = 100 mM IWR-1 for 7 days from day 22, flow cytometry, C1 clone
[6] = C1 clone, day 6, 100 ng/ml activin A, flow cytometry
[7] = C2 clone, day 6, 100 ng/ml activin A, flow cytometry
[8] = continuous activin A from day 6 to day 8 without NOGGIN/SB-431542

## O=C(Nc1cccc2cccnc12)c1ccc(N2C(=O)[C@@H]3[C@H](C2=O)[C@@H]2C=C[C@H]3C2)cc1 [IWR-1]
[1]; [5]
  cells expressing T1α: ≤ 88%
  cells positive for aquaporin-5 (AQ5): up to 92%
  cells positive for caveolin-1: ≤ 98%
[1]; AETII exposed to Wnt/β-catenin inhibitor
  AETI cells positive for the type I markers T1α and caveolin-1: more than 90%
[1]; IWR-1 treated versus untreated AETII
  AETI markers AQ5, T1α and caveolin-1 by immunostaining: significant increase
[1]; after IWR-1, flow cytometry
  AETII cell marker SPC: decreased significantly
[1]; iPSC-AETII cells exposed to IWR-1 versus freshly isolated human primary alveolar type I cells
  expression of type I cell markers by quantitative RT-PCR: comparable to expression levels of freshly isolated human primary alveolar type I cells

## Fibronectin
[2]
  DE cell attachment: attach well

## laminin
[2]
  DE cell attachment: attach well

B1: activin A: soluble cytokine activating the nodal receptor, used at 100 ng/ml to induce definitive endoderm (protein, UniProt P08476 311-426, looked up)
Inhibin beta A chain: GLECDGKVNICCKKQFFVSFKDIGWNDWIIAPSGYHANYCEGECPSHIAGTSGSSLSFHSTVINHYRMRGHSPFANLKSCCVPTKLRPMSMLYYDDGQNIIKKDIQNMIVEECGCS
modifications: Inhibin beta A chain
[3]; C1 clone
  endodermal cells based on dual expression of SOX17 and FOXA2: more than 85%
[3]; [6]
  percentage of cells expressing CXCR4: 92.71±4.0%
  percentage of cells expressing FOXA2: 87.66±1.2%
[3]; C2 clone
  endodermal cells based on dual expression of SOX17 and FOXA2: > 89%
[3]; [7]
  percentage of cells expressing CXCR4: 87.23±2.0%
  percentage of cells expressing FOXA2: 83.54±1.8%
  percentage of cells expressing SOX17: 91.42±3.0%
[4]; activin A induced cells without NOGGIN/SB-431542, day 13
  cells positive for NKX2.1: < 1%
[4]; [8]
  FOXA2+/SOX2+ cells: rare
  NKX2.1+ cells: few
